Assay results as given in US20090285771A1.

Target: growth hormone (GH) receptor (mouse) (UniProt P16882)
Test: cell-based or functional assay

- GH receptor mRNA expression levels in the liver (quantitative RT-PCR, normalized to GAPDH, % of control), 60 minutes after 30 µg subcutaneous rGH in BALB/c mice (% of level prior to administration): 65
- IGF-1-BP3 mRNA expression levels in the liver (quantitative RT-PCR, normalized to GAPDH, % of control), 60 minutes after 30 µg subcutaneous rGH in BALB/c mice: 250 % increase
Substance: recombinant rat growth hormone (from UniProt P01244 27-216) (ligand)
